Results taken from patent US20190048074A1.

Assays:
[1] = target: full-length human APLNR (human) (UniProt P35414); experiment: FACS, 10 µg/mL antibody, HEK293/CRE-luc/hAPLNR cells
[2] = target: full length cynomolgus APLNR (cynomolgus monkey (Macaca fascicularis)); experiment: FACS, 10 µg/mL antibody, HEK293/CRE-luc/MfAPLNR cells
[3] = target: full-length human APLNR (human) (UniProt P35414); experiment: FACS, 4 µg/mL secondary alone, HEK293/CRE-luc/hAPLNR cells
[4] = target: full length cynomolgus APLNR (cynomolgus monkey (Macaca fascicularis)); experiment: FACS, 4 µg/mL secondary alone, HEK293/CRE-luc/MfAPLNR cells
[5] = target: full length cynomolgus APLNR (cynomolgus monkey (Macaca fascicularis)); experiment: FACS, secondary alone, HEK293/CRE-luc/MfAPLNR cells
[6] = target: full-length human APLNR (human) (UniProt P35414); experiment: FACS, secondary alone, HEK293/CRE-luc/hAPLNR cells

Sequence of full-length human APLNR (human) (P35414 whole entry): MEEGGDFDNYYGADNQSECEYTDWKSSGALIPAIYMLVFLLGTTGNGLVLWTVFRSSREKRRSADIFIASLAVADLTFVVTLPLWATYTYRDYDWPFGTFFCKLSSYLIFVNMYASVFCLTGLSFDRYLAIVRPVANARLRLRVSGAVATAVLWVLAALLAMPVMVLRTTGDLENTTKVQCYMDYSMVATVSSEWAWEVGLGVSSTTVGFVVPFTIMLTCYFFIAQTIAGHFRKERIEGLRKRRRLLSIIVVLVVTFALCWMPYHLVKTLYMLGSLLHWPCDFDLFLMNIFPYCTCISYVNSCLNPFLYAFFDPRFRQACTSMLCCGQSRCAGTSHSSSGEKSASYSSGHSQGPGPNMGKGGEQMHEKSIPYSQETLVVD
Sequence of full length cynomolgus APLNR (cynomolgus monkey (Macaca fascicularis)) (O97666 whole entry): as the sequence (P35414 whole entry) above, with F101S, L167F, E194D, I290V counted along it

Substance | Binding Ratio of Geom. Mean to Unstained Cells [1] | Binding Ratio of Geom. Mean to Unstained Cells [2] | Binding Ratio of Geom. Mean to Unstained Cells [3] | Binding Ratio of Geom. Mean to Unstained Cells [4] | Binding Ratio of Geom. Mean to Unstained Cells [5] | Binding Ratio of Geom. Mean to Unstained Cells [6]
Isotype Control (Tables 4 and 5) (antibody) | 2 fold | 2 fold | – | – | – | –
anti-human IgG antibody conjugated with Alexa 488 | – | – | 2 fold | 2 fold | 2 fold | 2 fold
anti-mouse IgG antibody conjugated with Alexa 647 | – | – | 4 fold | 3 fold | – | –
mouse IgG (mIgG) control antibody | 7 fold | 6 fold | – | – | – | –
